Reference: patent US20210040174A1

Columns and labels:
[1] = biological target: his-tagged C-terminal fragment from CA125 (UniProt Q8WXI7); test: SPR (BiaCore T200): fusion protein captured on Protein A chip, his-tagged C-terminal CA125 fragment as analyte; one MCB domain (MCB domain-1X, SEQ ID: 4)
[2] = biological target: his-tagged C-terminal fragment from CA125 (UniProt Q8WXI7); test: SPR (BiaCore T200): fusion protein captured on Protein A chip, his-tagged C-terminal CA125 fragment as analyte; two MCB domains (MCB domain-2X, SEQ ID: 2)

With “MCB domain-1X fusion protein (single MCB domain of mesothelin linked to the N-terminus of the human IgG1 Fc heavy chain) (Fc fusion)” the Kd [1] was 65.2 pM.

Work on “MCB domain-2X fusion protein (two MCB domains of mesothelin linked via a single spacer unit to the N-terminus of the human IgG1 Fc heavy chain) (Fc fusion)” yielded a Kd [2] of 14.9 pM.
